Experimental data published in publication PMC12412624, “Engineered Cas12j‐8 is a Versatile Platform for Multiplexed Genome Modulation in Mammalian Cells”.
Changes are numbered by the printed parent chain.

How the values were obtained:
[1] = system: T1, dCas12j-8 E101R E101R;D369A;E567A;D658A (bacteriophage (metagenome)); conditions: HEK293T cells; panel 1c (compare within a panel only); scale: mean GFP / mean GFP of wild type, printed, no background subtraction
T1 sequence: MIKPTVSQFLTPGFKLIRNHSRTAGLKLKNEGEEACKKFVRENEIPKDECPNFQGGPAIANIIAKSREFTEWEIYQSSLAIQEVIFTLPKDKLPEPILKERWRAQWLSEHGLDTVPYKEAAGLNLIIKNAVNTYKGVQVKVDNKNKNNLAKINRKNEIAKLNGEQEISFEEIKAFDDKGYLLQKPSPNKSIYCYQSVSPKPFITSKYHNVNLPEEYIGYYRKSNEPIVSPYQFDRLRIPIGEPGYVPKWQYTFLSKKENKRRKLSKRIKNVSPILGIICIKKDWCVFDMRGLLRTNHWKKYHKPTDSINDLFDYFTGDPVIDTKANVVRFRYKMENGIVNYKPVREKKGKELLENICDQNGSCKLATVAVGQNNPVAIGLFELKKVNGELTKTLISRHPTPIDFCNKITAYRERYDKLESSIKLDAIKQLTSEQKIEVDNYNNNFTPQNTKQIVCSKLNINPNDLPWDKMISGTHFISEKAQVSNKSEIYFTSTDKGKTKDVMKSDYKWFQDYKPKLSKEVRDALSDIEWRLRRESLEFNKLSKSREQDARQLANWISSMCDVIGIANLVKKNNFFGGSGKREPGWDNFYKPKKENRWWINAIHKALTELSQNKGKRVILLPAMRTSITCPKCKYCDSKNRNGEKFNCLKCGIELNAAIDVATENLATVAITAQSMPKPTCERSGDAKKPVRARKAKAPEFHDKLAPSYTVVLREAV

[2] = system: T2, dCas12j-8 E242R E242R;D369A;E567A;D658A (bacteriophage (metagenome)); conditions: HEK293T cells; panel 1c (compare within a panel only); scale: mean GFP / mean GFP of wild type, printed, no background subtraction
T2 sequence: T1 sequence with R101E, E242R

[3] = system: T3, dCas12j-8 E258R+D313R+D495R+D527R E258R;D313R;D495R;D527R;D369A;E567A;D658A (bacteriophage (metagenome)); conditions: HEK293T cells; panel 1e (compare within a panel only); scale: mean GFP / mean GFP of wild type, printed, no background subtraction
T3 sequence: T1 sequence with R101E, E258R, D313R, D495R, D527R

[4] = system: T4, dCas12j-8 D495R D495R;D369A;E567A;D658A (bacteriophage (metagenome)); conditions: HEK293T cells; panel 1c (compare within a panel only); scale: mean GFP / mean GFP of wild type, printed, no background subtraction
T4 sequence: T1 sequence with R101E, D495R

Question: Which binding signal [1] does the source give for “CUUUCAAGACUAAUAGAUUGCUCCUUACGAGGAGACACUCCCUAUCAGUGAUAGAG / TTNACTCCCTATCAGTGATAGAG / CTCTATCACTGATAGGGAGTNAA [TetO]” here?
Answer: 0.711

Question: What about the binding signal [2] of the same sequence?
Answer: 0.683

Question: And the binding signal [3]?
Answer: 5.3

Question: What about the binding signal [4] of the same sequence?
Answer: 1.18
